Source: the supplement of paper PMC9112550, “Optimization of the antimicrobial peptide Bac7 by deep mutational scanning” (BMC Biology, 2022)

Each sequence was assayed on Escherichia coli TOP10 (assay: shrunken log2 fold change of peptide-encoding DNA abundance (4.5 h post-induction vs induction); higher = less antimicrobial activity (less host growth inhibition)). Conditions: time post-induction: 4.5 h; library: site-saturation at positions 5, 18, 19, 20.
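Note: peptides expressed intracellularly from a pBAD plasmid library in pooled LB shake-flask culture, induced with 0.3% L-arabinose, DNA abundance read by NGS, three biological replicates, DESeq2 with apeglm shrinkage.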

| Sequence | shrunken log2 fold change |
| --- | --- |
| RRIRKRPPRLPRPRPRPWHTPRP | 0.0104 |
| RRIRQRPPRLPRPRPRPLSHPRP | -0.168 |
| RRIRYRPPRLPRPRPRPKRIPRP | -0.0123 |
| RRIRCRPPRLPRPRPRPSNAPRP | -0.572 |
| RRIRARPPRLPRPRPRPHYDPRP | -0.0354 |
| RRIRLRPPRLPRPRPRPNHPPRP | -0.498 |
| RRIRGRPPRLPRPRPRPEVYPRP | 0.346 |
| RRIRARPPRLPRPRPRPMCHPRP | 0.294 |
| RRIRFRPPRLPRPRPRPGQDPRP | -0.0452 |
| RRIRFRPPRLPRPRPRPNWHPRP | -0.0729 |
| RRIRARPPRLPRPRPRPLMAPRP | 0.554 |
| RRIRERPPRLPRPRPRPIPPPRP | 0.0452 |
| RRIRTRPPRLPRPRPRPERDPRP | 0.0175 |
| RRIRDRPPRLPRPRPRPKCKPRP | -0.0015 |
| RRIRWRPPRLPRPRPRPECSPRP | 0.966 |
| RRIRPRPPRLPRPRPRPCLGPRP | -0.198 |
| RRIRERPPRLPRPRPRPDPRPRP | 0.768 |
| RRIRLRPPRLPRPRPRPLVRPRP | -0.105 |
| RRIRWRPPRLPRPRPRPRMMPRP | 0.0684 |
| RRIRWRPPRLPRPRPRPQRMPRP | 0.0753 |
| RRIRSRPPRLPRPRPRPLYTPRP | -0.422 |
| RRIRCRPPRLPRPRPRPKGLPRP | -0.134 |
| RRIRDRPPRLPRPRPRPIPGPRP | 0.171 |
| RRIRGRPPRLPRPRPRPLHEPRP | 0.74 |
| RRIRIRPPRLPRPRPRPTGSPRP | 0.087 |

| Sequence | shrunken log2 fold change |
| --- | --- |
| RRIRQRPPRLPRPRPRPMTIPRP | -0.227 |
| RRIRQRPPRLPRPRPRPNDVPRP | 0.00724 |
| RRIRYRPPRLPRPRPRPCCMPRP | -0.356 |
| RRIRERPPRLPRPRPRPEQYPRP | -0.14 |
| RRIRERPPRLPRPRPRPSRIPRP | -0.234 |
| RRIRWRPPRLPRPRPRPVKQPRP | -0.092 |
| RRIRLRPPRLPRPRPRPYLQPRP | -0.0746 |
| RRIRKRPPRLPRPRPRPPNKPRP | 0.289 |
| RRIRYRPPRLPRPRPRPGPGPRP | 0.304 |
| RRIRVRPPRLPRPRPRPKPPPRP | 0.318 |
| RRIRHRPPRLPRPRPRPIPIPRP | -0.115 |
| RRIRERPPRLPRPRPRPDQNPRP | -0.108 |
| RRIRTRPPRLPRPRPRPMNDPRP | -0.0997 |
| RRIRGRPPRLPRPRPRPSRWPRP | 0.489 |
| RRIRRRPPRLPRPRPRPHELPRP | 0.429 |
| RRIRGRPPRLPRPRPRPSGSPRP | 0.128 |
| RRIRKRPPRLPRPRPRPKFKPRP | 0.241 |
| RRIRVRPPRLPRPRPRPFIPPRP | -0.535 |
| RRIRSRPPRLPRPRPRPLHIPRP | -0.0437 |
| RRIRNRPPRLPRPRPRPQRVPRP | 0.399 |
| RRIRHRPPRLPRPRPRPYFRPRP | -0.296 |
| RRIRCRPPRLPRPRPRPEYYPRP | -0.159 |
| RRIRSRPPRLPRPRPRPGVPPRP | 0.318 |
| RRIRWRPPRLPRPRPRPLTEPRP | 0.251 |
| RRIRMRPPRLPRPRPRPSPEPRP | 1.12 |

| Sequence | shrunken log2 fold change |
| --- | --- |
| RRIRRRPPRLPRPRPRPAPDPRP | 1.65 |
| RRIRSRPPRLPRPRPRPGSNPRP | -0.00709 |
| RRIRERPPRLPRPRPRPTVNPRP | -0.129 |
| RRIRSRPPRLPRPRPRPCQKPRP | 0.185 |
| RRIRARPPRLPRPRPRPPNQPRP | 0.691 |
| RRIRERPPRLPRPRPRPASPPRP | -0.165 |
| RRIRSRPPRLPRPRPRPPVVPRP | 0.473 |
| RRIRQRPPRLPRPRPRPMCAPRP | 0.195 |
| RRIRQRPPRLPRPRPRPYDGPRP | -0.101 |
| RRIRIRPPRLPRPRPRPFLPPRP | -0.4 |
| RRIRMRPPRLPRPRPRPNVNPRP | 0.148 |
| RRIRDRPPRLPRPRPRPWLEPRP | 0.098 |
| RRIRLRPPRLPRPRPRPQPFPRP | -1.07 |
| RRIRSRPPRLPRPRPRPLIGPRP | -0.118 |
| RRIRCRPPRLPRPRPRPRKMPRP | -0.00382 |
| RRIRARPPRLPRPRPRPPCQPRP | 0.438 |
| RRIRLRPPRLPRPRPRPLIYPRP | -0.832 |
| RRIRWRPPRLPRPRPRPGKCPRP | 0.0425 |
| RRIRRRPPRLPRPRPRPCDQPRP | 0.0305 |
| RRIRRRPPRLPRPRPRPENRPRP | 0.0232 |
| RRIRCRPPRLPRPRPRPIPKPRP | 0.326 |
| RRIRTRPPRLPRPRPRPQRCPRP | 0.00192 |
| RRIRCRPPRLPRPRPRPVWKPRP | 0.159 |
| RRIRWRPPRLPRPRPRPTIEPRP | 0.145 |
| RRIRVRPPRLPRPRPRPQHRPRP | 0.0105 |

| Sequence | shrunken log2 fold change |
| --- | --- |
| RRIRSRPPRLPRPRPRPDQTPRP | 0.0249 |
| RRIRERPPRLPRPRPRPAKQPRP | 0.00996 |
| RRIRDRPPRLPRPRPRPRWAPRP | 0.0236 |
| RRIRWRPPRLPRPRPRPEGMPRP | 0.999 |
| RRIRVRPPRLPRPRPRPPNDPRP | -0.17 |
| RRIRHRPPRLPRPRPRPTLCPRP | -0.134 |
| RRIRTRPPRLPRPRPRPSTHPRP | -0.575 |
| RRIRDRPPRLPRPRPRPDGFPRP | 0.0291 |
| RRIRHRPPRLPRPRPRPCHSPRP | -0.19 |
| RRIRPRPPRLPRPRPRPPMTPRP | 0.0831 |
| RRIRIRPPRLPRPRPRPEPDPRP | -0.00501 |
| RRIRFRPPRLPRPRPRPGPNPRP | -0.0666 |
| RRIRHRPPRLPRPRPRPNTSPRP | -0.534 |
| RRIRKRPPRLPRPRPRPKQDPRP | 0.119 |
| RRIRQRPPRLPRPRPRPRYQPRP | -0.0107 |
| RRIRWRPPRLPRPRPRPMPMPRP | 0.112 |
| RRIRQRPPRLPRPRPRPDDRPRP | -0.000777 |
| RRIRLRPPRLPRPRPRPGWDPRP | 0.507 |
| RRIRGRPPRLPRPRPRPQLCPRP | 0.0863 |
| RRIRNRPPRLPRPRPRPGKKPRP | -0.00783 |
| RRIRFRPPRLPRPRPRPQTTPRP | 0.00489 |
| RRIRARPPRLPRPRPRPKKMPRP | -0.0239 |
| RRIRTRPPRLPRPRPRPNYNPRP | -0.831 |
| RRIRIRPPRLPRPRPRPTYAPRP | -0.612 |
| RRIRKRPPRLPRPRPRPLVSPRP | 0.0109 |

| Sequence | shrunken log2 fold change |
| --- | --- |
| RRIRDRPPRLPRPRPRPMQVPRP | 0.0758 |
| RRIRQRPPRLPRPRPRPRRTPRP | 0.655 |
| RRIRKRPPRLPRPRPRPADHPRP | 0.111 |
| RRIRARPPRLPRPRPRPRCPPRP | 0.248 |
| RRIRSRPPRLPRPRPRPCVQPRP | -0.0792 |
| RRIRSRPPRLPRPRPRPCHVPRP | -0.0349 |
| RRIRCRPPRLPRPRPRPACLPRP | -0.111 |
| RRIRERPPRLPRPRPRPYEYPRP | -0.387 |
| RRIRNRPPRLPRPRPRPRYEPRP | -0.27 |
| RRIRQRPPRLPRPRPRPGMMPRP | -0.0714 |
| RRIRKRPPRLPRPRPRPIGPPRP | 0.0335 |
| RRIRGRPPRLPRPRPRPGQDPRP | 0.605 |
| RRIRIRPPRLPRPRPRPGWTPRP | 0.11 |
| RRIRVRPPRLPRPRPRPSYMPRP | -1.16 |
| RRIRFRPPRLPRPRPRPCKCPRP | -0.317 |
| RRIRNRPPRLPRPRPRPHQYPRP | -0.458 |
| RRIRRRPPRLPRPRPRPPQFPRP | 0.864 |
| RRIRNRPPRLPRPRPRPPTTPRP | 0.19 |
| RRIRVRPPRLPRPRPRPQWAPRP | -0.0201 |
| RRIRGRPPRLPRPRPRPSFRPRP | 0.0601 |
| RRIRKRPPRLPRPRPRPEAEPRP | 3.31 |
| RRIRNRPPRLPRPRPRPYPIPRP | -0.0592 |
| RRIRWRPPRLPRPRPRPATGPRP | 0.0426 |
| RRIRKRPPRLPRPRPRPVAEPRP | 0.973 |
| RRIRARPPRLPRPRPRPKDYPRP | -0.248 |

| Sequence | shrunken log2 fold change |
| --- | --- |
| RRIRGRPPRLPRPRPRPENWPRP | 0.594 |
| RRIRARPPRLPRPRPRPVGWPRP | 1.02 |
| RRIRCRPPRLPRPRPRPPTAPRP | 0.272 |
| RRIRDRPPRLPRPRPRPIHQPRP | -0.241 |
| RRIRQRPPRLPRPRPRPGNHPRP | -0.0216 |
| RRIRQRPPRLPRPRPRPPIFPRP | 0.163 |
| RRIRPRPPRLPRPRPRPWLPPRP | -0.0294 |
| RRIRGRPPRLPRPRPRPPKLPRP | 0.524 |
| RRIRRRPPRLPRPRPRPHAGPRP | 0.425 |
| RRIRERPPRLPRPRPRPRDTPRP | -0.0322 |
| RRIRYRPPRLPRPRPRPENNPRP | -0.572 |
| RRIRHRPPRLPRPRPRPDQIPRP | -0.0166 |
| RRIRHRPPRLPRPRPRPLNAPRP | -0.0576 |
| RRIRMRPPRLPRPRPRPPVWPRP | 0.825 |
| RRIRPRPPRLPRPRPRPEGQPRP | 0.798 |
| RRIRFRPPRLPRPRPRPINAPRP | 0.00976 |
| RRIRFRPPRLPRPRPRPNPNPRP | -0.168 |
| RRIRHRPPRLPRPRPRPEKVPRP | -0.017 |
| RRIRNRPPRLPRPRPRPPMCPRP | 0.154 |
| RRIRVRPPRLPRPRPRPSTVPRP | -0.0673 |
| RRIRHRPPRLPRPRPRPMCSPRP | -0.0225 |
| RRIRPRPPRLPRPRPRPINPPRP | -0.714 |
| RRIRFRPPRLPRPRPRPVMKPRP | -0.189 |
| RRIRDRPPRLPRPRPRPSTYPRP | -0.273 |
| RRIRMRPPRLPRPRPRPDTPPRP | 0.872 |
